Data reported in publication PMC9490022, “Enhanced salt-tolerance of Bacillus subtilis glutaminase by fusing self-assembling amphipathic peptides at its N-terminus” (Frontiers in Bioengineering and Biotechnology, 2022).

Substrate: NC(=O)CC[C@H](N)C(=O)O
Assay: purified protein
Format: biochemical, Bacillus subtilis
Settings: 10–100 mM L-glutamine, 20 mM potassium phosphate, pH 7.5, 37°C, no NaCl

| Protein | Km [mM] | kcat/Km [M⁻¹ s⁻¹] | kcat [s⁻¹] |
| --- | --- | --- | --- |
| EAK16-E3C/E55F/D213T (Bacillus subtilis subsp. subtilis str. 168; D213T/E3C/E55F) (protein, N-terminal His-tag, designed peptide EAK16 (…) and PT linker (…) fused to N-terminus of triple mutant; expressed in B. subtilis WB600; oligomerises) KCLIKEHQKDINPALQLHDWVEYYRPFAANGQSANYIPALGKVNDSQLGICVLFPDGTMIHAGDWNVSFTMQSISKVISFIAACMSRGIPYVLDRVDVEPTGDAFNSIIRLEINKPGKPFNPMINAGALTIASILPGESAYEKLEFLYSVMETLIGKRPRIHEEVFRSEWETAHRNRALAYYLKETNFLEAEVEETLEVYLKQCAMESTTETIALIGLILAHDGYHPIRHEQVIPKDVAKLAKALMLTCGMYNASGKYAAFVGVPAKSGVSGGIMALVPPSARREQPFQSGCGIGIYGPAIDEYGNSLTGGMLLKHMAQEWELSIF | 18.45 ± 1.2 | 174000 ± 4200 |  |
| E3C/E55F/D213T (Bacillus subtilis subsp. subtilis str. 168; D213T/E3C/E55F) (protein, full-length triple mutant, N-terminal His-tag kept, expressed in B. subtilis WB600 (pP43NMK), about 40 kDa) MKCLIKEHQKDINPALQLHDWVEYYRPFAANGQSANYIPALGKVNDSQLGICVLFPDGTMIHAGDWNVSFTMQSISKVISFIAACMSRGIPYVLDRVDVEPTGDAFNSIIRLEINKPGKPFNPMINAGALTIASILPGESAYEKLEFLYSVMETLIGKRPRIHEEVFRSEWETAHRNRALAYYLKETNFLEAEVEETLEVYLKQCAMESTTETIALIGLILAHDGYHPIRHEQVIPKDVAKLAKALMLTCGMYNASGKYAAFVGVPAKSGVSGGIMALVPPSARREQPFQSGCGIGIYGPAIDEYGNSLTGGMLLKHMAQEWELSIF | 22.72 ± 1.5 | 162000 ± 3240 | 3730 ± 190 |
